In the oligonucleotide strings, read from the 5' end, every base follows the letter of its sugar. An asterisk marks phosphorothioate; unmarked linkages are phosphodiester. Other units and linkages are bracketed, terminal groups are in braces. A string of capitals states the bases alone. m = 2'-O-methyl; r = 2'-OH (RNA)
B1: GA209: PCSK9 gRNA; protospacer CTTGGCAGTTGAGCACGCGC (SEQ ID NO: 203) (nucleic acid)
guide: CUUGGCAGUUGAGCACGCGCGUUUUAGAGCUAGAAAUAGCAAGUUAAAAUAAGGCUAGUCCGUUAUCAACUUGAAAAAGUGGCACCGAGUCGGUGCUUUU
modifications: sugars from the 5' end m3 r94 m3, linkages s3 o93 s3 (s phosphorothioate, o phosphodiester), T or U not given here
B2: GA159: PCSK9 gRNA; protospacer GCGTTCCGAGGAGGACGGCC (SEQ ID NO: 153) (nucleic acid)
guide: mG*mC*mG*rUrUrCrCrGrArGrGrArGrGrArCrGrGrCrCrGrUrUrUrUrArGrArGrCrUrArGrArArArUrArGrCrArArGrUrUrArArArArUrArArGrGrCrUrArGrUrCrCrGrUrUrArUrCrArArCrUrUrGrArArArArArGrUrGrGrCrArCrCrGrArGrUrCrGrGrUrGrCrU*mU*mU*mU
B3: GA213: PCSK9 gRNA; protospacer CGTGCTCAACTGCCAAGGGA (SEQ ID NO: 207) (nucleic acid)
guide: CGUGCUCAACUGCCAAGGGAGUUUUAGAGCUAGAAAUAGCAAGUUAAAAUAAGGCUAGUCCGUUAUCAACUUGAAAAAGUGGCACCGAGUCGGUGCUUUU
modifications: sugars from the 5' end m3 r94 m3, linkages s3 o93 s3 (s phosphorothioate, o phosphodiester), T or U not given here
B4: GA210: PCSK9 gRNA; protospacer CTGCGCGTGCTCAACTGCCA (SEQ ID NO: 204) (nucleic acid)
guide: CUGCGCGUGCUCAACUGCCAGUUUUAGAGCUAGAAAUAGCAAGUUAAAAUAAGGCUAGUCCGUUAUCAACUUGAAAAAGUGGCACCGAGUCGGUGCUUUU
modifications: sugars from the 5' end m3 r94 m3, linkages s3 o93 s3 (s phosphorothioate, o phosphodiester), T or U not given here
B5: GA206: PCSK9 gRNA; protospacer CCGGTGGTCACTCTGTATGC (SEQ ID NO: 200) (nucleic acid)
guide: CCGGUGGUCACUCUGUAUGCGUUUUAGAGCUAGAAAUAGCAAGUUAAAAUAAGGCUAGUCCGUUAUCAACUUGAAAAAGUGGCACCGAGUCGGUGCUUUU
modifications: sugars from the 5' end m3 r94 m3, linkages s3 o93 s3 (s phosphorothioate, o phosphodiester), T or U not given here
B6: GA203: PCSK9 gRNA; protospacer TGACCCTGCCCTCGATTTCC (SEQ ID NO: 197) (nucleic acid)
guide: UGACCCUGCCCUCGAUUUCCGUUUUAGAGCUAGAAAUAGCAAGUUAAAAUAAGGCUAGUCCGUUAUCAACUUGAAAAAGUGGCACCGAGUCGGUGCUUUU
modifications: sugars from the 5' end m3 r94 m3, linkages s3 o93 s3 (s phosphorothioate, o phosphodiester), T or U not given here
B7: GA212: PCSK9 gRNA; protospacer CGGGATGCCGGCGTGGCCAA (SEQ ID NO: 206) (nucleic acid)
guide: CGGGAUGCCGGCGUGGCCAAGUUUUAGAGCUAGAAAUAGCAAGUUAAAAUAAGGCUAGUCCGUUAUCAACUUGAAAAAGUGGCACCGAGUCGGUGCUUUU
modifications: sugars from the 5' end m3 r94 m3, linkages s3 o93 s3 (s phosphorothioate, o phosphodiester), T or U not given here
B8: GA211: PCSK9 gRNA; protospacer TGCGCGTGCTCAACTGCCAA (SEQ ID NO: 205) (nucleic acid)
guide: UGCGCGUGCUCAACUGCCAAGUUUUAGAGCUAGAAAUAGCAAGUUAAAAUAAGGCUAGUCCGUUAUCAACUUGAAAAAGUGGCACCGAGUCGGUGCUUUU
modifications: sugars from the 5' end m3 r94 m3, linkages s3 o93 s3 (s phosphorothioate, o phosphodiester), T or U not given here
B9: GA205: PCSK9 gRNA; protospacer CCCTGCCCTCGATTTCCCGG (SEQ ID NO: 199) (nucleic acid)
guide: CCCUGCCCUCGAUUUCCCGGGUUUUAGAGCUAGAAAUAGCAAGUUAAAAUAAGGCUAGUCCGUUAUCAACUUGAAAAAGUGGCACCGAGUCGGUGCUUUU
modifications: sugars from the 5' end m3 r94 m3, linkages s3 o93 s3 (s phosphorothioate, o phosphodiester), T or U not given here
B10: GA204: PCSK9 gRNA; protospacer CACTCTGTATGCTGGTGTCT (SEQ ID NO: 198) (nucleic acid)
guide: CACUCUGUAUGCUGGUGUCUGUUUUAGAGCUAGAAAUAGCAAGUUAAAAUAAGGCUAGUCCGUUAUCAACUUGAAAAAGUGGCACCGAGUCGGUGCUUUU
modifications: sugars from the 5' end m3 r94 m3, linkages s3 o93 s3 (s phosphorothioate, o phosphodiester), T or U not given here
B11: GA158: PCSK9 gRNA; protospacer GCTAGCCTTGCGTTCCGAGG (SEQ ID NO: 152) (nucleic acid)
guide: mG*mC*mU*rArGrCrCrUrUrGrCrGrUrUrCrCrGrArGrGrGrUrUrUrUrArGrArGrCrUrArGrArArArUrArGrCrArArGrUrUrArArArArUrArArGrGrCrUrArGrUrCrCrGrUrUrArUrCrArArCrUrUrGrArArArArArGrUrGrGrCrArCrCrGrArGrUrCrGrGrUrGrCrU*mU*mU*mU
B12: GA207: PCSK9 gRNA; protospacer GGAAATCGAGGGCAGGGTCA (SEQ ID NO: 201) (nucleic acid)
guide: GGAAAUCGAGGGCAGGGUCAGUUUUAGAGCUAGAAAUAGCAAGUUAAAAUAAGGCUAGUCCGUUAUCAACUUGAAAAAGUGGCACCGAGUCGGUGCUUUU
modifications: sugars from the 5' end m3 r94 m3, linkages s3 o93 s3 (s phosphorothioate, o phosphodiester), T or U not given here
B13: GA208: PCSK9 gRNA; protospacer CCAGCATACAGAGTGACCAC (SEQ ID NO: 202) (nucleic acid)
guide: CCAGCAUACAGAGUGACCACGUUUUAGAGCUAGAAAUAGCAAGUUAAAAUAAGGCUAGUCCGUUAUCAACUUGAAAAAGUGGCACCGAGUCGGUGCUUUU
modifications: sugars from the 5' end m3 r94 m3, linkages s3 o93 s3 (s phosphorothioate, o phosphodiester), T or U not given here
B14: GA202: PCSK9 gRNA; protospacer AAGCGGGTCCCGTCCTCCTC (SEQ ID NO: 196) (nucleic acid)
guide: AAGCGGGUCCCGUCCUCCUCGUUUUAGAGCUAGAAAUAGCAAGUUAAAAUAAGGCUAGUCCGUUAUCAACUUGAAAAAGUGGCACCGAGUCGGUGCUUUU
modifications: sugars from the 5' end m3 r94 m3, linkages s3 o93 s3 (s phosphorothioate, o phosphodiester), T or U not given here

Tests used:
PCSK9 gene [1] = experiment: PCSK9 gRNA/SpCas9 editing in primary human hepatocytes (Tables 2, 4); type: cell-based; conditions: SpCas9 mRNA MS002 1:1 by weight; for Human Primary Hepatocyte Editing % 100: 100 ng/RNA/mL; for Human Primary Hepatocyte Editing % 500: 500 ng/RNA/mL; for Human Primary Hepatocyte Editing % 2500: 2500 ng/RNA/mL
Procedure, shortened: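 Primary human hepatocytes co-transfected with PCSK9 gRNA plus SpCas9 mRNA (1:1 by weight) at 2500, 500 or 100 ng RNA/mL, or 2500–250 ng/mL for tracr-modified guides. Editing at the target site read by amplicon next-generation sequencing of extracted genomic DNA.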

PCSK9 gene [2] = experiment: PCSK9 gRNA/SpCas9 editing in primary cynomolgus hepatocytes (Tables 2, 22); type: cell-based, cynomolgus monkey; conditions: SpCas9 mRNA MS002 1:1 by weight; for Cyno Primary Hepatocyte Editing % 100: 100 ng/RNA/mL; for Cyno Primary Hepatocyte Editing % 500: 500 ng/RNA/mL; for Cyno Primary Hepatocyte Editing % 2500: 2500 ng/RNA/mL

Molecule | Human Primary Hepatocyte Editing % 100 (PCSK9 gene [1]) [%] | Human Primary Hepatocyte Editing % 500 (PCSK9 gene [1]) [%] | Human Primary Hepatocyte Editing % 2500 (PCSK9 gene [1]) [%] | Cyno Primary Hepatocyte Editing % 100 (PCSK9 gene [2]) [%] | Cyno Primary Hepatocyte Editing % 500 (PCSK9 gene [2]) [%] | Cyno Primary Hepatocyte Editing % 2500 (PCSK9 gene [2]) [%]
B1 | 0.02 | 8.76 | 33.23 | 3.59 | 13.96 | 40.78
B2 | 1.35 | 3.74 | 14.68 | 1.19 | 3.69 | 12.21
B3 | 2.17 | 8.77 | 24.28 | 2.73 | 16.35 | 45.22
B4 | 0.04 | 5.86 | 14.3 | 4.5 | 19.72 | 54.88
B5 | 0.85 | 2.7 | 20.73 | 0.84 | 2.73 | 16.9
B6 | 2.57 | 12.76 | 37.02 | 3.66 | 10.49 | 32.85
B7 | 1.17 | 5.59 | 12.45 | 1.96 | 16.53 | 54.89
B8 | 1.31 | 10.29 | 38.07 | 1.01 | 8.3 | 28.63
B9 | 3.74 | 12.42 | 38.04 | 3.01 | 12.04 | 36.43
B10 | 1.27 | 8.98 | 24.98 | 0.91 | 5.27 | 19.37
B11 | 2 | 6.55 | 37.94 | 1.04 | 4.42 | 18.27
B12 | 0.84 | 3.46 | 20.79 | 1.05 | 2.72 | 19.16
B13 | 1.38 | 5.72 | 25.76 | 1.15 | 6.01 | 25.07
B14 | 2.54 | 10.75 | 34.75 | 1.54 | 8.91 | 31.13
